Measured values published in patent US20200123576, “Platform for developing stable mammalian cell lines” (Icosagen Cell Factory OÜ, published 2020).

Molecular target: BPV1 E2 protein (Bovine papillomavirus 1, UniProt P03122 P03122:1-410)
Assay: cell_activity
Details: chain copies: 2

Sequence of BPV1 E2 protein (P03122 whole entry, one chain of several): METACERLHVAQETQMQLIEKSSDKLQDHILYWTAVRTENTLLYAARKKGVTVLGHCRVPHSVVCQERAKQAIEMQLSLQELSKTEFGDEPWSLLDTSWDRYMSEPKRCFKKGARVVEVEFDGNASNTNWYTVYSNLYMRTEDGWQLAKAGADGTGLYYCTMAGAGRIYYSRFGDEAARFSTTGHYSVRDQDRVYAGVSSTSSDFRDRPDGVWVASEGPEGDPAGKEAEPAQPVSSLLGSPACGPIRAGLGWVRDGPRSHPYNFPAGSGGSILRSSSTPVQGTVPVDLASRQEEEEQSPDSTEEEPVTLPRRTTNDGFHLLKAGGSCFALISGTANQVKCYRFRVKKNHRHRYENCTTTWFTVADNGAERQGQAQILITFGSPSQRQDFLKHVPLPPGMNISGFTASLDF

B1: BPV1 E2 binding sites (E2BS) (dsDNA)
DNA 1: ACCGTTGCCGGTCGGATCTGTACCGTTGCCGGTCGGATCTGTACCGTTGCCGGTCGGATCTGTACCGTTGCCGGTCGGATCTGTACCGTTGCCGGTCGGATCTGTACCGTTGCCGGTCGGATCTGTACCGTTGCCGGTCGGATCTGTACCGTTGCCGGTCGGATCTGTACCGTTGCCGGTC
DNA 2: GACCGGCAACGGTACAGATCCGACCGGCAACGGTACAGATCCGACCGGCAACGGTACAGATCCGACCGGCAACGGTACAGATCCGACCGGCAACGGTACAGATCCGACCGGCAACGGTACAGATCCGACCGGCAACGGTACAGATCCGACCGGCAACGGTACAGATCCGACCGGCAACGGT
binding signal: ~3.5 fold
